Paper PMC10447908 (2023)

Legend:
Experiment in all cases: FACS
[1] = target: SARS-CoV-2 Spike receptor binding domain, Wuhan (ancestral) variant (SARS-CoV-2, UniProt P0DTC2, biotinylated in vitro when needed)
[2] = target: SARS-CoV-2 Spike receptor binding domain, Omicron variant (SARS-CoV-2, UniProt P0DTC2, biotinylated in vitro when needed)
[3] = target: SARS-CoV-2 Spike receptor binding domain, Delta variant (SARS-CoV-2, UniProt P0DTC2, biotinylated in vitro when needed)

Binder | IC50 [1] [nM] | IC50 [2] [nM] | IC50 [3] [nM]
Xiang-Liu 2 (designed binder) NDDELHMLMTDLVYEALHFAKDEEIKKRVFQLFELADKAYKNNDRQKLEKVVEELKELLERLLSEEDPCACESILKFEAKVEGLLQALTRKLEAVSGRLAVLENRIIQVQLVESGGGLVQAGGSLRLSCAASGRTFSNDALGWFRQAPRKEREFVAAINWNSGTYYADSVKGRFTISRDNAKNTVYLQMNSLKPEDTAVYSCAAASDYGLPREDFLYDYWGQGTQVTVSS | 12.6 | 5.2 | 6.8
Xiang-Liu 1 (designed binder) NDDELHMLMTDLVYEALHFAKDEEIKKRVFQLFELADKAYKNNDRQKLEKVVEELKELLERLLSEEDPCACESILKFEAKVEGLLQALTRKLEAVSGRLAVLENRIIDKEWILQKIYEIMRLLDELGHAEASMRVSDLIYEFMKKGDERLLEEAERLLEEVER | 9.3 | 36.4 | 5.1
